Source: patent US20240343803A1 (SHANDONG SIMCERE BIOPHARMACEUTICAL, published 2024)

T1: human PVRIG-his (AcroBiosystems, Cat NO. PVG-H52H4) (human, UniProt Q6DKI7 41-171, limits assumed)
T1 construct: also called human PVRIG protein
T1 sequence (looked up): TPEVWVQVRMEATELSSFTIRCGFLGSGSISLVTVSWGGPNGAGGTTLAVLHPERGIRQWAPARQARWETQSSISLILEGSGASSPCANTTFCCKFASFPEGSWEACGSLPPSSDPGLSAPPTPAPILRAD

T2: human PVRIG on FlpinCHO-PVRIG cells (human, UniProt Q6DKI7 41-326)
T2 construct: whole, on cells
T2 sequence (looked up): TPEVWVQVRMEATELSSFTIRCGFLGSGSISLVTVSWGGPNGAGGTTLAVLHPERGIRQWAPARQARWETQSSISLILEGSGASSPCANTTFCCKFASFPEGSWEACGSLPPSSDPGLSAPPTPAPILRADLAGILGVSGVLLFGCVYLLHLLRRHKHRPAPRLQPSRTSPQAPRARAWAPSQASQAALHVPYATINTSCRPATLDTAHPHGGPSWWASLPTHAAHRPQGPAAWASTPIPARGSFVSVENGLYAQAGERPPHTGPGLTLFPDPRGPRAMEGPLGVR

T3: cynomolgus monkey PVRIG (Novoprotein, Cat NO. C09B) (cynomolgus monkey, UniProt A0A2K5WVV8 41-171)
T3 construct: also called cynomolgus monkey PVRIG protein
T3 sequence: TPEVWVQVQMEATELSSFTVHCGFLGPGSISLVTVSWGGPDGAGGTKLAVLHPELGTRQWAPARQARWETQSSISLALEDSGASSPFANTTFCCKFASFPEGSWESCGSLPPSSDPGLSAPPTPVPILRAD

T4: human PVRIG-mFc protein (Acro, PVG-H5253) (human, UniProt Q6DKI7 41-171, limits assumed)
T4 construct: bought reagent; also called PVRIG-ECD-mFc
T4 sequence (looked up): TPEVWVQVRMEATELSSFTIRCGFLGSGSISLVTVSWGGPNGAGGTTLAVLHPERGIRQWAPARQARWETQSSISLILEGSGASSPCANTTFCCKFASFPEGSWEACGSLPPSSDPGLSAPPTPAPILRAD

T5: human PVRIG-his (AcroBiosystems, Cat NO. PVG-H52H4) (human, UniProt Q6DKI7 41-171, limits assumed)
T5 construct: treated as the same protein; also called human PVRIG-His protein; Human PVRIG-His, Acro C227P1-9ARF1-T4
T5 sequence (looked up): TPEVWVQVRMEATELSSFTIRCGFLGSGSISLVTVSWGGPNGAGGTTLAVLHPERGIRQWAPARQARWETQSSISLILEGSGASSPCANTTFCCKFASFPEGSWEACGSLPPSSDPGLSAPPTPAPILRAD


Experiments:
[1] = target: T1, human PVRIG-his (AcroBiosystems, Cat …); assay: competition ELISA, PVRIG-His coated, competitor human PVRL2-mFc; design: AUC: unit not given here
Protocol: (§1) The ELISA plate was pre-coated with 100 μL/well of 0.5 μg/mL human PVRIG-his protein (AcroBiosystems, Cat NO. PVG-H52H4). The tested anti-PVRIG antibodies were diluted from the highest concentration of 16 nM (two-fold concentration). The diluted antibodies were mixed with 18 ng/ml human PVRL2-mFc (AcroBiosystems, Cat NO. CD2-H5257) in equal volume, added into the plate (100 μL/well), and incubated with shaking at room temperature for 2.0 hours. […] A HRP substrate, TMB (Thermo, Cat NO. 34029) was added into wells after washing the plate again for color development. After adding a termination solution to terminate the reaction, the absorbance value was read by a microplate reader (MD i3×). An inhibiting curve was drawn with concentration of antibodies as the abscissa and the corresponding OD value as the ordinate. The IC50 value was calculated by using a Four Parameter Logistic Fit (GraphPadPrism9). The smaller the IC50 value, the stronger the ability of the antibodies inhibits the binding between PVRIG and PVRL2. The positive and negative controls are the same as in Example 8.
The methods refer to Example 11. The inhibiting activity of the humanized antibodies was normalized to the corresponding parental antibodies. If the percentage value is higher than 100%, the inhibiting effect of humanized antibodies is better than that of parental antibodies.

[2] = target: T2, human PVRIG on FlpinCHO-PVRIG cells; assay: FACS, FlpinCHO-PVRIG cells
Protocol: The Ham's F12 (Gibico, 21127-022) complete medium containing 10% FBS was then added to terminate the digestion and acquire cell suspension. After counting with a cell counter (Beckman Coulter, Vi-CELL), an appropriate amount of cell suspension was centrifuged at 350×g to remove the supernatant, washed twice with PBS, stained with Zombie violet (Biolegend, 423114) and incubated at room temperature for 20 minutes. After incubation, the cells were added with staining buffer (2% FBS+PBS) to stop staining, centrifuged at 350×g to remove the supernatant, washed twice and resuspended with staining buffer to a density of 2×10⁶ cells/mL. The cells were plated into a 96-well plate (50 μL of cell suspension per well) for further use. The antibodies were diluted from the highest concentration of 46 nM (two-fold concentration) with staining buffer by 3.3-fold serial dilution. The diluted antibodies were added to the well containing 50 μL of cell suspension. The plate was placed on a microplate shaker at 400 rpm for 1 minute to fully mix the antibodies and cells, and then incubated at 4° C. for 30 minutes. After the incubation, the cells were washed twice with staining buffer (200 μL per well) and centrifuged at 350×g for 5 minutes to discard the supernatant. The PE goat anti-human IgG Fc antibody (ebioscience, 12-4998-82) was diluted 250 times with staining buffer, added into the washed wells (100 μL per well), mixed well, and stained at 4° C. for 30 minutes. After staining, the cells were washed twice with staining buffer, finally resuspended with 200 μL staining buffer and analyzed by flow cytometry (BD, Canto II). The stronger the signal, the stronger the ability of the antibodies binds to PVRIG. An antibody binding curve was drawn with concentration of antibodies as the abscissa and the corresponding Mean Fluorescence Intensity (MFI) as the ordinate. The AUC value of the curve was calculated by using a Four Parameter Logistic Fit (GraphPadPrism9). The stronger the AUC value, the stronger the ability of the antibodies binds to FlpinCHO-PVRIG and FlpinCHO-cyno PVRIG. […] The binding activity of the antibodies was normalized to the positive control COM701-hIgG1 and SRF813-hIgG1.

[3] = target: T3, cynomolgus monkey PVRIG (Novoprotein, …); assay: ELISA, antigen coated
Protocol: (§2) The ELISA plate was pre-coated with 100 μL/well of 0.5 μg/mL human PVRIG-his (AcroBiosystems, Cat NO. PVG-H52H4) or cynomolgus monkey PVRIG (Novoprotein, Cat NO. C09B). The tested anti-PVRIG humanized antibodies were serially diluted (initial concentration 3 nM, 3-fold serial dilution), added into the plate (100 μL/well) and incubated with shaking at room temperature for 1.5 hours. […] A HRP substrate, TMB (Thermo, Cat NO. 34029) was added into wells after washing the plate again for color development. After adding a termination solution to terminate the reaction, the absorbance value was read by a microplate reader (MD i3×). An antibody binding curve was drawn with concentration of antibodies as the abscissa and the corresponding OD value as the ordinate. The EC50 value was calculated by using a Four Parameter Logistic Fit (GraphPadPrism9). The smaller the EC50 value, the stronger the ability of the antibodies binds to human or cynomolgus monkey PVRIG. The binding effect of the humanized antibodies was normalized to the corresponding parental antibodies. If the percentage value is higher than 100%, the binding effect of humanized antibodies is better than that of parental antibody.

[4] = target: T1, human PVRIG-his (AcroBiosystems, Cat …); assay: ELISA, antigen coated
Protocol: as §2

[5] = target: T1, human PVRIG-his (AcroBiosystems, Cat …); assay: SPR (BIAcore), antibody captured on Protein A chip, human PVRIG-His analyte
Protocol: Biacore was used to detect the specific binding between anti-PVRIG antibody and human PVRIG protein. Protein A chip was used in the BIAcore assay. The time required for the chip to capture the diluted antibody and saturate the binding antigen to reach Rₘₐₓ (Maximum binding capacity, 50 RU) was measured by manual run. […] The affinity of antibody for antigen was measured by multi-cycle kinetics. In each cycle, the antibodies were injected prior to the injection of gradient concentraions of PVRIG proteins allowing the occurrence of antibody-antigen association and dissociation After each cycle, the Protein A chip was regenerated by Glycine, pH 1.5 (to remove the proteins on the chip). The affinity of antibody for antigen was calculated by BIAcore T200 analysis software.
The methods refer to Example 10.

[6] = target: T4, human PVRIG-mFc protein (Acro, …); assay: competition FACS; blocked: human PVRIG-mFc binding to CHO-K1-CD112 cells
Protocol: After incubation, the cells were added with staining buffer (2% FBS+PBS) to stop staining, centrifuged at 350×g to remove the supernatant, washed twice and resuspended with staining buffer to a density of 1×10⁶ cells/mL. The cells were plated into a 96-well plate (50 μL of cell suspension per well) for further use. A working solution of human PVRIG-mFc protein (Acro, PVG-H5253) prepared with staining buffer, 1 μg/mL (four-fold concentration), was added into a 96-well plate (50 μL PVRIG-mFc working solution per well). […] The diluted antibodies were added to the well containing 50 μL of PVRIG-mFc. The plate was placed on a microplate shaker at 400 rpm for 1 minute to fully mix the antibodies and PVRIG-mFc proteins, and then incubated at 4° C. for 30 minutes. After the incubation, the cell suspension prepared above (100 μL) was added into the wells, gently mixed with the pipette tip and incubated at 4° C. for 30 minutes. After the incubation, the cells were washed twice with staining buffer (200 μL per well) and centrifuged at 350×g for 5 minutes to discard the supernatant. The PE goat anti-mouse IgG Fc antibody (Biolegend, 405337) was diluted 250 times with staining buffer, added into the washed wells (100 μL per well), mixed well, and stained at 4° C. for 30 minutes. After staining, the cells were washed twice with staining buffer, finally resuspended with 200 μL staining buffer and analyzed by flow cytometry (BD, Canto II). The weaker the fluorescence signal, the stronger the ability of the antibodies blocks the binding of CHO-K1 human CD112 cells to the PVRIG-mFc protein. An antibody binding curve was drawn with concentration of antibodies as the abscissa and the corresponding Mean Fluorescence Intensity (MFI) as the ordinate. The IC50 value of the antibodies and the AUC value of the binding curve were calculated by using a Four Parameter Logistic Fit (GraphPadPrism9). The smaller the IC50 value and AUC value, the stronger the ability of the antibodies competes with CHO-K1-CD112 cells to bind to human PVRIG-mFc protein.

[7] = target: T5, human PVRIG-his (AcroBiosystems, Cat …); assay: competition ELISA on coated human PVRIG-his; blocked ligand human PVRL2-mFc
Protocol: as §1

| Binder | % relative activity (AUC) parental antibody/test antibody [1] [%] | AUC [1] | AUC % to COM701-hIgG1 [2] [%] | AUC % to SRF813-hIgG1 [2] [%] | AUC % to parental Ab [2] [%] | % relative activity parental antibody/tested antibody [3] [%] | EC50 [3] [nM] | % relative activity parental antibody/tested antibody [4] [%] | EC50 [4] [nM] | Kd [5] [nM] | koff [5] [s⁻¹] | kon [5] [M⁻¹ s⁻¹] | % relative activity (IC50) parental antibody/test antibody [1] [%] | IC50 [1] [nM] | IC50 (read off the curve) [6] [nM] | IC50 (read off the curve) [7] [nM] |
| --- | --- | --- | --- | --- | --- | --- | --- | --- | --- | --- | --- | --- | --- | --- | --- | --- |
| PVRIG-A105-H3a (Fc fusion, humanized variant of PVRIG-A105; also called A105.VH3a; not shown: constant part not restated for the humanized forms; parents are VHH-hinge-CH2-CH3 of human IgG1; detected by anti-human) EVQLVESGGGLVQPGGSLRLSCAASGRTFDRHTMTWFRQAPGKEREFVATASRIPGDTYYVDSVKGRFTISRDNAKNSVYLQMNSLRAEDTAVYYCAATSAYSSEVDSYEKGSWYDNWGQGTMVTVSS | 47.2 | 5.37 | 15.9 | 23.9 | 12.8 | 2.53 | 1.27 | 0.99 | 7.41 | – | – | – | – | – | – | – |
| PVRIG-A105-H2 (Fc fusion, humanized variant of PVRIG-A105; also called A105 VH2; not shown: constant part not restated for the humanized forms; parents are VHH-hinge-CH2-CH3 of human IgG1; detected by anti-human) EVQLVESGGGLVQPGGSLRLSCAASGRTFDRHTMTWFRQAPGKEREFVATASRIPGDTYYVDSVKGRFTISRDNAKNSLYLQMNSLRAEDTAVYYCAATSAYCSEVDCYEKGSWYDNWGQGTMVTVSS | – | – | – | – | – | – | 0.0343 | – | 0.0515 | 0.693 | 0.00092 | 1.33e+06 | 128 | 0.577 | – | – |
| PVRIG-A105-H5 (Fc fusion, humanized variant of PVRIG-A105; also called A105.VH5; not shown: constant part not restated for the humanized forms; parents are VHH-hinge-CH2-CH3 of human IgG1; detected by anti-human) EVQLVESGGGLVQPGGSLRLSCAASGRTFDRHTMTWFRQAPGKEREFVATASRIPGDTYYVDSVKGRFTISRDNAKNSLYLQMNSLRAEDTAVYYCAATSAYCSEVDCYEKGSWYDNWGQGIQVTVSS | – | – | – | – | – | – | 0.0377 | – | 0.0678 | 0.818 | 0.00091 | 1.11e+06 | 114 | 0.647 | – | – |
| PVRIG-A60 (VHH, tested as VHH-hinge-CH2-CH3 (human IgG1-Fc); not shown: human IgG1 hinge-CH2-CH3) VHH: QVQLVESGGGLVQSGGSLRLSCAASGRTRSMYVMGWFRQAPGKEREFVGRIKWSGDTTYTSYADFVKGRFTLYGNQARNTVYLQMNSLKPEDAAVYYCNLRRLDGVNYWGKGTLVTVSS | – | – | – | – | – | – | – | – | – | – | – | – | – | – | ~1 | ~1 |
